For data set [1], the system named is beta-conglutin (Lup an 1) (lupin). The experiment in a line: SPR. Particulars: 10 mM phosphate, 138 mM NaCl, 2.7 mM KCl, 1.5 mM MgCl2, pH 7.4; ELONA at 21 C, SPR temperature not stated (Biacore 3000, CM5).
Data set [2] has the same test system. The experiment in a line: competition. The conditions noted are these: 10 mM phosphate, 138 mM NaCl, 2.7 mM KCl, 1.5 mM MgCl2, pH 7.4; ELONA at 21 C, SPR temperature not stated (Biacore 3000, CM5). In general terms: Surface plasmon resonance follows binding to a sensor surface in real time, without labels.
Another data set concerns the target T1, gamma-conglutin (lupin, UniProt Q9FSH9;Q9FSH9 34-300;301-452).
T1 sequence 1: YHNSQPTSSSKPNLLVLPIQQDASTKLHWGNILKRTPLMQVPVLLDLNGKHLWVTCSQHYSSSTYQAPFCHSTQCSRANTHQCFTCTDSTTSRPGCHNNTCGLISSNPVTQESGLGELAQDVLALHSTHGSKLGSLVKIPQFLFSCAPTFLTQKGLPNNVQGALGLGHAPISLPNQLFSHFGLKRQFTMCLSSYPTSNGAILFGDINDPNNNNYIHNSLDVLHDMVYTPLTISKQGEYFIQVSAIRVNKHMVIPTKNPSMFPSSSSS
T1 sequence 2: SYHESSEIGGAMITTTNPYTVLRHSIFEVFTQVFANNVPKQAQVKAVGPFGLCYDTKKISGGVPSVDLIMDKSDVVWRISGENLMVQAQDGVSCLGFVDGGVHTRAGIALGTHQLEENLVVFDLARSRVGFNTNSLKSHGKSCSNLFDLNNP
Kind of data set: SPR; 10 uM DNA, 1.5 mM Mg2+; signal negligible; 10 mM phosphate, 138 mM NaCl, 2.7 mM KCl, 1.5 mM MgCl2, pH 7.4; ELONA at 21 C, SPR temperature not stated (Biacore 3000, CM5). The conditions noted are these: protein: native, tags: none, label: none, single strand, predicted stem-loops and G-quadruplex (m-fold, QGRS).

By Kd is commonly meant the constant that tells how readily two partners part at equilibrium. Higher therefore signals weaker binding. The IC50 is the concentration that gives 50% inhibition. A high value points to weaker potency.

In turn, “AGCTGACACAGCAGGTTGGTGGGGGTGGCTTCCAGTTGGGTTGACAATACGTAGGGACACGAAGTCCAACCACGAGTCGAGCAATCTCGAAAT [Sequence 40 (S40)]” registered a Kd in data set [1] of 360 nM. Besides, the IC50 in data set [2] amounted to 393 nM. In turn, “AGCTGACACAGCAGGTTGGTGGGGGTGGCTCACATCATGGTAGAATGACTGAACAGCGTTGATTAAAAGGCACGAGTCGAGCAATCTCGAAAT [Sequence 2 (S2)]” had a Kd in data set [1] of 515 nM.

B1: Sequence 2 (S2) (structured_DNA)
DNA: AGCTGACACAGCAGGTTGGTGGGGGTGGCTCACATCATGGTAGAATGACTGAACAGCGTTGATTAAAAGGCACGAGTCGAGCAATCTCGAAAT
For the molecule B1, the binding result with gamma-conglutin is reported as “no binding”.

B2: Sequence 40 (S40) (structured_DNA)
DNA: AGCTGACACAGCAGGTTGGTGGGGGTGGCTTCCAGTTGGGTTGACAATACGTAGGGACACGAAGTCCAACCACGAGTCGAGCAATCTCGAAAT
As for B2, in the data set with gamma-conglutin (biotinylated probe S4 hybridised to 3' end for ELONA detection), the binding result was “no binding”.
